Values joined by “and” are separate entries in the source; they are usually repeats but may differ in a detail not shown here. Equal entries are not always repeated.
Experiments:
[1] = target: H7N9病毒的HA蛋白(购自ACROBiosystems) (H7N9 influenza virus); assay: ELISA, HA coated, supernatant of transfected 293F cells, anti-human IgG-HRP
[2] = target: H7N9病毒 A/Anhui/1/2013 (血凝素HA on virus) (influenza A virus A/Anhui/1/2013 (H7N9)); assay: cell-based or functional assay
[3] = target: H7N9病毒的HA蛋白(购自ACROBiosystems) (H7N9 influenza virus); assay: BLI (PALL Fortebio), 3F12 captured on protein A sensor, HA antigen in solution

B1: 抗H7N9全人源单克隆抗体3F12 (antibody, V domains shown)
VH: QVQLVESGAEVKKPGASVKVSCKASGYIFNSYDINWVRQATGQGLEWMGWMTPDSGDNGFAQKFQGRVTMTRNTSITTAYMELSSLTSEDTAVYYCANGTADCSSGGSCYTWFDPWGQGTLVTVSS
VL: SSELTQDPAVSVALGQTVRITCQGDRALRSYYASWYQQKPGQAPVLVIYGKTNRPSGIPDRFSGSSSGNTASLTITGAQAEDEADYYCTSRDNSGYHLVFGGGTKLTVLV
In the case of B1, the OD 450nm [1] is reported as 2.31 OD450 and 2.78 OD450 and 2.06 OD450, the 中和实验 IC50 (微量中和-ELISA, MDCK细胞) [2] is reported as 14.3 µg/mL and the Kd [3] is reported as 3.5 nM.

— patent publication CN111320685A
